T1: Y14D-Cav-1-YFP (phosphomimicking mutant) (human, UniProt Q03135 1-178, Y14D)
T1 sequence: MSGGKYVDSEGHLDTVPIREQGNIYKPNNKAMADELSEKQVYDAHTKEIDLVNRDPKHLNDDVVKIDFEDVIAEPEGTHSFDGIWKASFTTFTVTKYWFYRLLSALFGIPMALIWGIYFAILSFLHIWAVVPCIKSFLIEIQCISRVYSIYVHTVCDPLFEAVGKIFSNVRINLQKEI

B1: WT-eNOS-CFP, expressed in HEK cells (enzyme)
chain: MGNLKSVAQEPGPPCGLGLGLGLGLCGKQGPATPAPEPSRAPASLLPPAPEHSPPSSPLTQPPEGPKFPRVKNWEVGSITYDTLSAQAQQDGPCTPRRCLGSLVFPRKLQGRPSPGPPAPEQLLSQARDFINQYYSSIKRSGSQAHEQRLQEVEAEVAATGTYQLRESELVFGAKQAWRNAPRCVGRIQWGKLQVFDARDCRSAQEMFTYICNHIKYATNRGNLRSAITVFPQRCPGRGDFRIWNSQLVRYAGYRQQDGSVRGDPANVEITELCIQHGWTPGNGRFDVLPLLLQAPDDPPELFLLPPELVLEVPLEHPTLEWFAALGLRWYALPAVSNMLLEIGGLEFPAAPFSGWYMSTEIGTRNLCDPHRYNILEDVAVCMDLDTRTTSSLWKDKAAVEINVAVLHSYQLAKVTIVDHHAATASFMKHLENEQKARGGCPADWAWIVPPISGSLTPVFHQEMVNYFLSPAFRYQPDPWKGSAAKGTGITRKKTFKEVANAVKISASLMGTVMAKRVKATILYGSETGRAQSYAQQLGRLFRKAFDPRVLCMDEYDVVSLEHETLVLVVTSTFGNGDPPENGESFAAALMEMSGPYNSSPRPEQHKSYKIRFNSISCSDPLVSSWRRKRKESSNTDSAGALGTLRFCVFGLGSRAYPHFCAFARAVDTRLEELGGERLLQLGQGDELCGQEEAFRGWAQAAFQAACETFCVGEDAKAAARDIFSPKRSWKRQRYRLSAQAEGLQLLPGLIHVHRRKMFQATIRSVENLQSSKSTRATILVRLDTGGQEGLQYQPGDHIGVCPPNRPGLVEALLSRVEDPPAPTEPVAVEQLEKGSPGGPPPGWVRDPRLPPCTLRQALTFFLDITSPPSPQLLRLLSTLAEEPREQQELEALSQDPRRYEEWKWFRCPTLLEVLEQFPSVALPAPLLLTQLPLLQPRYYSVSSAPSTHPGEIHLTVAVLAYRTQDGLGPLHYGVCSTWLSQLKPGDPVPCFIRGAPSFRLPPDPSLPCILVGPGTGIAPFRGFWQERLHDIESKGLQPTPMTLVFGCRCSQLDHLYRDEVQNAQQRGVFGRVLTAFSREPDNPKTYVQDILRTELAAEVHRVLCLERGHMFVCGDVTMATNVLQTVQRILATEGDMELDEAGDVIGVLRDQQRYHEDIFGLTLRTQEVTSRIRTQSFSLQERQLRGAVPWAFDPPGSDTNSP

Key:
[1] = molecular target: Y14D-Cav-1-YFP (phosphomimicking mutant) (human) (UniProt Q03135); test: co-IP
[2] = molecular target: T1, Y14D-Cav-1-YFP (phosphomimicking mutant); test: co-IP

Molecule | fold binding against WT-eNOS with WT-Cav-1 [1] | fold binding against WT-eNOS with WT-Cav-1 [2]
eNOS-S1177D-CFP (phosphomimicking mutant) (from UniProt P29474-1 1-1203) (enzyme) | 4.2 fold | –
B1 | – | 4.2 fold

— PMC3315804 (Molecular Biology of the Cell, 2012)
